Experimental data reported in US20120316071A1 (published 2012).

Key:
[1] = biological target: T1, Recombinant Human DLL4 (delta-like protein 4) (human, UniProt Q9NR61 27-529); experiment: ELISA on coated DLL4, 100 nM Fab
T1 construct: Bought recombinant human DLL4 (R&D Systems Cat#1506-D4/CF), coated on the plate; also called rHuman DLL4; Delta-like 4

[2] = biological target: T1, Recombinant Human DLL4 (delta-like …); experiment: 96-well plate ECL (MSD) binding assay on coated DLL4, 10 nM Fab

B1: Fab VH1-46_IGHD6-6*01_IGHJ1*01 S102A/S103P/S104F/H111F/I51S/N52L/S54T/G56H (APFF SLTH) & L6_IGKJ1*01 (Fab, V domains shown)
VH: QVQLVQSGAEVKKPGASVKVSCKASGYTFTSYYMHWVRQAPGQGLEWMGISLPTGHSTSYAQKFQGRVTMTRDTSTSTVYMELSSLRSEDTAVYYCAREEYAPFSAEYFQFWGQGTLVTVSS
VL: not shown
notes: Fab made in E. coli; CH1 with tags and kappa CL are not included
- ELISA signal [1]: 0.786
- ECL signal [2]: 135000
